Reference: patent US7432061B2, “Assays for measuring matrix metalloproteinase activities” (BioZyme, Inc., priority 2002, dated 2008)

How the values were obtained:
collagenase 3 = collagenase 3 (Homo sapiens, UniProt P45452); experiment: Inhibition with type II collagen, FlSub3 cleavage; format: biochemical; conditions: for Average Percent Inhibition: COL3(.013 nM)
Protocol: (§1) In a 96 well plate, collagenase 3 (0.013 nM), collagenase 1 (1.25 nM), stromelysin 1 (0.8 nM), gelatinase A (0.025 nM), or gelatinase B (0.008 nM) were reacted with 20 uM FlSub3 in standard assay buffer in the presence of varying concentrations of bovine type II collagen (0.18-44 ug/ml). The type II collagen, a 1 mg/ml stock in 0.5M acetic acid, was transferred into assay buffer by passing the material through a biospin P6 column from Amersham. The reaction was initiated by addition of substrate to enzyme containing either buffer or an appropriate amount of type II collagen. Data points were taken every 15 min over a period of 15 hours using an excitation and emission wavelength of 350 and 485 nm respectively. The usable data (1-6 hours), was taken and the percent inhibition by type II collagen was calculated for each enzyme and plotted as a function of inhibitor concentration and time in the assay. It should be noted that the percent inhibition varies with time as the bovine substrate is consumed during the reaction course.

stromelysin 1 = stromelysin 1 (Homo sapiens, UniProt P08254); experiment: Inhibition with type II collagen, FlSub3 cleavage; format: biochemical; conditions: for Improvement In Selectivity (Strom1 v Col-3): 44 ug/ml Type II Collagen vs no Type II Collagen, FlSb3; for Average Percent Inhibition from 1.1 to 6.6 Hours / Average Percent Inhibition: STR1(.80 nM)
Protocol: as §1

[1] = TypeIICOL(15 ug/ul), FISb3, hour 4.10 to 5.10
[2] = TypeIICOL(15 ug/ul), FISb3, hour 5.10 to 6.10
[3] = TypeIICOL(44 ug/ul), FISb3, hour 0.10 to 1.10
[4] = TypeIICOL(44 ug/ul), FISb3, hour 1.10 to 2.10
[5] = TypeIICOL(44 ug/ul), FISb3, hour 1.10 to 6.60
[6] = TypeIICOL(44 ug/ul), FISb3, hour 2.10 to 3.10
[7] = TypeIICOL(44 ug/ul), FISb3, hour 3.10 to 4.10
[8] = TypeIICOL(44 ug/ul), FISb3, hour 4.10 to 5.10
[9] = TypeIICOL(44 ug/ul), FISb3, hour 5.10 to 6.10
[10] = TypeIICOL(.18 ug/ul), FISb3, hour 0.10 to 1.10
[11] = TypeIICOL(.18 ug/ul), FISb3, hour 1.10 to 2.10
[12] = TypeIICOL(.18 ug/ul), FISb3, hour 1.10 to 6.60
[13] = TypeIICOL(.18 ug/ul), FISb3, hour 2.10 to 3.10
[14] = TypeIICOL(.18 ug/ul), FISb3, hour 3.10 to 4.10
[15] = TypeIICOL(.18 ug/ul), FISb3, hour 4.10 to 5.10
[16] = TypeIICOL(.18 ug/ul), FISb3, hour 5.10 to 6.10

Sequence of stromelysin 1 (P08254 100-477): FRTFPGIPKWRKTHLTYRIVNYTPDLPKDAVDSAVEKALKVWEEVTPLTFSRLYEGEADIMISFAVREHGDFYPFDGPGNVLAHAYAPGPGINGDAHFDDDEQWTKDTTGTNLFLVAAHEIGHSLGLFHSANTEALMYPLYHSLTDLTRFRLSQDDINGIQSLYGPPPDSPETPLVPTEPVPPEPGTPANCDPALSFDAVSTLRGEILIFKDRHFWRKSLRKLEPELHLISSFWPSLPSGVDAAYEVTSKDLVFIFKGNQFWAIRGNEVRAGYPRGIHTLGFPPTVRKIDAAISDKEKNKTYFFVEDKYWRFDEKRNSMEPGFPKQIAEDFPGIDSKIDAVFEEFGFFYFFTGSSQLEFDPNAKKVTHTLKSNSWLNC

Type II Collagen: bovine type II collagen, full length MMP substrate used as inhibitor of gelatinases
Average Percent Inhibition (collagenase 3; [1]): −41% | Average Percent Inhibition (collagenase 3; [2]): −34% | Average Percent Inhibition (collagenase 3; [3]): 2% | Average Percent Inhibition (collagenase 3; [4]): −55% | Average Percent Inhibition (collagenase 3; [5]): −53% | Average Percent Inhibition (collagenase 3; [6]): −71% | Average Percent Inhibition (collagenase 3; [7]): −60% | Average Percent Inhibition (collagenase 3; [8]): −49% | Average Percent Inhibition (collagenase 3; [9]): −41% | Average Percent Inhibition (collagenase 3; [10]): 6% | Average Percent Inhibition (collagenase 3; [11]): −9% | Average Percent Inhibition (collagenase 3; [12]): −8% | Average Percent Inhibition (collagenase 3; [13]): −10% | Average Percent Inhibition (collagenase 3; [14]): −8% | Average Percent Inhibition (collagenase 3; [15]): −7% | Average Percent Inhibition (collagenase 3; [16]): −6% | Average Percent Inhibition (collagenase 3; TypeIICOL(.55 ug/ul), FISb3, hour 0.10 to 1.10): 14% | Average Percent Inhibition (collagenase 3; TypeIICOL(.55 ug/ul), FISb3, hour 1.10 to 2.10): −11% | Average Percent Inhibition (collagenase 3; TypeIICOL(.55 ug/ul), FISb3, hour 1.10 to 6.60): −11% | Average Percent Inhibition (collagenase 3; TypeIICOL(.55 ug/ul), FISb3, hour 2.10 to 3.10): −15% | Average Percent Inhibition (collagenase 3; TypeIICOL(.55 ug/ul), FISb3, hour 3.10 to 4.10): −12% | Average Percent Inhibition (collagenase 3; TypeIICOL(.55 ug/ul), FISb3, hour 4.10 to 5.10): −10% | Average Percent Inhibition (collagenase 3; TypeIICOL(.55 ug/ul), FISb3, hour 5.10 to 6.10): −10% | inhibition of collagenase 3 by type II collagen (collagenase 3; FlSub3): not observed | increase in specificity of collagenase 3 (factor) (collagenase 3; highest concentration of collagen, FlSb3): 2.5 | effect on collagenase 3 at the highest concentrations of type II collagen (collagenase 3; highest concentrations, FlSub3): activation, rather than inhibition | Improvement In Selectivity (Strom1 v Col-3) (stromelysin 1): 2.5 fold | Improvement In Selectivity (Strom1 v Col-3) (stromelysin 1; listed as collagen): four | Average Percent Inhibition from 1.1 to 6.6 Hours (stromelysin 1; Type II Collagen 0.18 ug/ml): 15% | Average Percent Inhibition from 1.1 to 6.6 Hours (stromelysin 1; Type II Collagen 0.54 ug/ml): 13% | Average Percent Inhibition from 1.1 to 6.6 Hours (stromelysin 1; Type II Collagen 1.63 ug/ml): 19% | Average Percent Inhibition from 1.1 to 6.6 Hours (stromelysin 1; Type II Collagen 4.89 ug/ml): 12% | Average Percent Inhibition from 1.1 to 6.6 Hours (stromelysin 1; Type II Collagen 14.67 ug/ml): 18% | Average Percent Inhibition from 1.1 to 6.6 Hours (stromelysin 1; Type II Collagen 44.00 ug/ml): 19% | Average Percent Inhibition (stromelysin 1; TypeIICOL(1.6 ug/ul), FISb3, hour 0.10 to 1.10): −10% | Average Percent Inhibition (stromelysin 1; TypeIICOL(1.6 ug/ul), FISb3, hour 1.10 to 2.10): 24% | Average Percent Inhibition (stromelysin 1; TypeIICOL(1.6 ug/ul), FISb3, hour 1.10 to 6.60): 19% | Average Percent Inhibition (stromelysin 1; TypeIICOL(1.6 ug/ul), FISb3, hour 2.10 to 3.10): 22% | Average Percent Inhibition (stromelysin 1; TypeIICOL(1.6 ug/ul), FISb3, hour 3.10 to 4.10): 18% | Average Percent Inhibition (stromelysin 1; TypeIICOL(1.6 ug/ul), FISb3, hour 4.10 to 5.10): 17% | Average Percent Inhibition (stromelysin 1; TypeIICOL(1.6 ug/ul), FISb3, hour 5.10 to 6.10): 16% | Average Percent Inhibition (stromelysin 1; TypeIICOL(4.9 ug/ul), FISb3, hour 0.10 to 1.10): 50% | Average Percent Inhibition (stromelysin 1; TypeIICOL(4.9 ug/ul), FISb3, hour 1.10 to 2.10): 23% | Average Percent Inhibition (stromelysin 1; TypeIICOL(4.9 ug/ul), FISb3, hour 1.10 to 6.60): 12% | Average Percent Inhibition (stromelysin 1; TypeIICOL(4.9 ug/ul), FISb3, hour 2.10 to 3.10): 11% | Average Percent Inhibition (stromelysin 1; TypeIICOL(4.9 ug/ul), FISb3, hour 3.10 to 4.10): 8% | Average Percent Inhibition (stromelysin 1; TypeIICOL(4.9 ug/ul), FISb3, hour 4.10 to 5.10): 8% | Average Percent Inhibition (stromelysin 1; TypeIICOL(4.9 ug/ul), FISb3, hour 5.10 to 6.10): 8% | Average Percent Inhibition (stromelysin 1; TypeIICOL(15 ug/ul), FISb3, hour 0.10 to 1.10): 57% | Average Percent Inhibition (stromelysin 1; TypeIICOL(15 ug/ul), FISb3, hour 1.10 to 2.10): 28% | Average Percent Inhibition (stromelysin 1; TypeIICOL(15 ug/ul), FISb3, hour 1.10 to 6.60): 18% | Average Percent Inhibition (stromelysin 1; TypeIICOL(15 ug/ul), FISb3, hour 2.10 to 3.10): 18% | Average Percent Inhibition (stromelysin 1; TypeIICOL(15 ug/ul), FISb3, hour 3.10 to 4.10): 14% | Average Percent Inhibition (stromelysin 1; [1]): 13% | Average Percent Inhibition (stromelysin 1; [2]): 14% | Average Percent Inhibition (stromelysin 1; [3]): 62% | Average Percent Inhibition (stromelysin 1; [4]): 32% | Average Percent Inhibition (stromelysin 1; [5]): 19% | Average Percent Inhibition (stromelysin 1; [6]): 18% | Average Percent Inhibition (stromelysin 1; [7]): 14% | Average Percent Inhibition (stromelysin 1; [8]): 14% | Average Percent Inhibition (stromelysin 1; [9]): 14% | Average Percent Inhibition (stromelysin 1; [10]): 22% | Average Percent Inhibition (stromelysin 1; [11]): 22% | Average Percent Inhibition (stromelysin 1; [12]): 15% | Average Percent Inhibition (stromelysin 1; [13]): 15% | Average Percent Inhibition (stromelysin 1; [14]): 12% | Average Percent Inhibition (stromelysin 1; [15]): 12% | Average Percent Inhibition (stromelysin 1; [16]): 12% | Average Percent Inhibition (stromelysin 1; TypeIICOL(.55 ug/ul), FLSb3, hour 0.10 to 1.10): 43% | Average Percent Inhibition (stromelysin 1; TypeIICOL(.55 ug/ul), FLSb3, hour 1.10 to 2.10): 26% | Average Percent Inhibition (stromelysin 1; TypeIICOL(.55 ug/ul), FLSb3, hour 1.10 to 6.60): 13% | Average Percent Inhibition (stromelysin 1; TypeIICOL(.55 ug/ul), FLSb3, hour 2.10 to 3.10): 14% | Average Percent Inhibition (stromelysin 1; TypeIICOL(.55 ug/ul), FLSb3, hour 3.10 to 4.10): 10% | Average Percent Inhibition (stromelysin 1; TypeIICOL(.55 ug/ul), FLSb3, hour 4.10 to 5.10): 8% | Average Percent Inhibition (stromelysin 1; TypeIICOL(.55 ug/ul), FLSb3, hour 5.10 to 6.10): 8%
